Data taken from patent US20110189095A1, “CRKL TARGETING PEPTIDES” (The Board of Regents, of the University of Texas System, priority 2008, published 2011).

Test system: DU145 cells
Assay: Cell proliferation assay (WST-1)
Assay type: cell-based, human
Conditions: protein added exogenously 48 hours after siRNA transfection
From the text: In contrast, CRKL was not detected in control cell media as shown by immunoprecipitation either with anti-CRKL or with several control antibodies. […] Next, studies were undertaken to determine whether the CRKL secretion had any detectable effect(s) on cell proliferation and migration. […] As an additional control, it was shown that the decrease in cell proliferation could be rescued by exogenous CRKL (FIG. 8D) and only background levels of apoptosis (less than 1%) were detected in the CRKL siRNA knockdown cells or in serum-free medium cultured cells.
CRKL (mRNA accession # NM_005207), β1 integrin (mRNA accession # NM_002211), and control siRNAs were purchased (Santa Cruz, Ambion and Dharmacon). siRNA oligonucleotides sequences and corresponding manufacturers are summarized in (Table 3). Oligofectamine (Invitrogen) or DharmaFect (Dharmacon) were used to transfect siRNAs into DU145 cells (1-2×10^5 cells per well). The transfected cells were incubated for 48-72 hours prior to processing. […] Transfected cells were harvested and lysed in the presence of protease inhibitors. The tumor-homing phage binding activity was also examined in the CRKL knockdown cells. For rescue experiments, up to 1.5 μg of recombinant CRKL was exogenously added to CRKL siRNA transfected cells. […]

B1: exogenous CRKL: recombinant His-tag CRKL protein added exogenously (protein)
chain: MSSARFDSSDRSAWYMGPVSRQEAQTRLQGQRHGMFLVRDSSTCPGDYVLSVSENSRVSHYIINSLPNRRFKIGDQEFDHLPALLEFYKIHYLDTTTLIEPAPRYPSPPMGSVSAPNLPTAEDNLEYVRTLYDFPGNDAEDLPFKKGEILVIIEKPEEQWWSARNKDGRVGMIPVPYVEKLVRSSPHGKHGNRNSNSYGIPEPAHAYAQPQTTTPLPAVSGSPGAAITPLPSTQNGPVFAKAIQKRVPCAYDKTALALEVGDIVKVTRMNINGQWEGEVNGRKGLFPFTHVKIFDPQNPDENE
For B1, the “rescue of decrease in cell proliferation in CRKL siRNA knockdown cells” value was “rescued”.
